Measurements from the supplement of paper PMC10567573.

B1: HSP90AB1 (parent)
chain: YHTSQSGDEMTSLSEYVSRMKETQ

Variants of: B1
Test: protein stability index of a GFP-peptide fusion (GPS, HEK-293T) (PSI 1-6); higher = more stable
Settings: c terminus: a fixed tail appended
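Also: lentivirally expressed fusions sorted by FACS into six bins by GFP to DsRed ratio, PSI derived from sequencing read proportions per bin multiplied by bin number.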

Protein stability index of substitutions, site by site:
R19: D 4.41
T23: N 3.88 | V 4.14 | R 3.76 | I 3.63 | Y 3.16 | M 3.29 | P 3.33 | S 3.5 | H 3.59 | K 3.78 | W 2.79 | Q 3.9 | E 2.89 | C 3.23 | G 4.12 | A 3.81 | L 3.57 | D 4.52
K21: E 4.2 | C 3.47 | D 4.08 | G 3.84 | P 3.63 | Y 2.61 | Q 3.32 | R 3.29 | W 2.64 | H 3.52 | N 3.88 | T 3.42 | S 3.35 | V 3.58 | M 3.13 | F 2.84 | A 3.71 | L 3.52
Q24: K 3.43 | A 3.26 | M 3.2 | L 2.98 | E 3.94 | T 3.64 | G 3.52 | C 3.18 | P 3.43 | V 3.19 | I 3.05 | S 3.61 | D 4.06 | Y 3.1 | N 3.62 | F 3.16 | R 3.53
S14: V 3.37 | T 3.71 | Y 3.11 | W 1.81
V17: F 3.23 | R 4.27 | Y 3.33 | D 4.57 | I 3.22 | A 3.85 | N 4.12 | K 4.08 | W 2.41 | E 4.49 | T 3.72 | G 3.76 | S 3.87 | L 3.56 | C 3.27 | Q 4.04 | H 3.54 | P 3.86
M20: T 4.27 | Q 4.13 | P 4.44 | H 4.16 | A 4.62 | Y 3.55 | I 3.29 | S 3.73 | R 4.26 | L 3.42 | F 2.89 | N 4.1 | D 4.46 | C 3.81 | G 4.37 | E 3.73 | K 4.11 | W 2.47 | V 3.92
E15: T 2.79 | G 2.68 | W 1.48 | K 3.48 | A 2.6 | R 2.85 | D 3.02 | L 1.99 | S 2.87 | Q 3.15 | I 2.37 | F 1.99 | H 2.96 | Y 2.65 | V 1.89 | P 1.87 | N 3.77
E22: C 4.17 | H 3.05 | V 4.22 | S 3 | W 1.79 | D 3.83 | P 3.17 | M 3.31 | Q 3.94 | F 3.71 | I 3.89 | A 3.07 | N 3.84 | T 3.67 | K 3.63 | Y 3.44 | L 3.54 | G 3.33
S18: M 3.41 | C 2.87 | G 3.36 | D 4 | H 3.35 | E 3.8 | Q 3.66 | T 3.81 | A 3.72 | K 3.53 | P 3.92 | N 3.31 | I 3 | Y 2.56 | R 3.6 | W 1.77 | V 3.23 | L 2.74
Y16: T 4.02 | M 4.16 | V 3.79 | L 3.41 | S 4.22 | H 4.1 | N 4.3 | R 3.98 | E 4.37 | I 3.09 | K 3.53 | C 4.16 | A 4.17 | D 4.74 | Q 4.17 | W 2.69 | P 4.02 | F 3.49 | G 4
